Assay results: US20180021429A1, “ANTICANCER AGENTS OR ANTIMETASTATIC AGENTS USING FSTL1 AND COMBINATION DRUG THEREOF” (PHARMA FOODS INTERNATIONAL CO., LTD., priority 2015, published 2018)
Entries after “also recorded” stand apart in the source; their conditions may differ.

Legend:
[1] = tested on: induction of MSCs, cancer-associated MSCs, and M-MDSCs by FSTL1; experiment: Inhibitory activity against induction of MSC, cancer-associated MSC and MDSC by FSTL1 (Examples 13-15); assay type: cell-based, mouse
Description: Mouse bone marrow cells prepared in the same way as in Example 4 were supplemented with 20 ng/mL (final concentration) of FSTL1 and 10 μg/mL of the anti-FSTL1 antibody (#6-55, #7-34, #8-1, or #8-4), an anti-PD-L1 antibody reported to have an immunosuppression-mitigating effect, or a control antibody anti-DNP antibody and cultured under stimulation. 8 days thereafter, the number of cells was counted while the cells were stained with a PE-Cy5-labeled anti-CD45 antibody, a PE-labeled anti-ALCAM antibody, a FITC-labeled anti-CD271 antibody (Abcam plc, Cat. No. AB62122), a FITC-labeled anti-CD11b antibody (BD Pharmingen/Becton, Dickinson and Company, Cat. No. 553310), and a PE-Cy5-labeled anti-Gr1 antibody (eBioscience, Cat. No. 15-5931) in order to detect MSCs (CD45-negative cells), cancer-associated MSCs (CD45-negative, ALCAM-positive, and CD271-positive cells) which are MSCs increasing in number in association with cancer metastasis, and monocytic myeloid-derived suppressor cells (M-MDSCs: CD11b-positive, Gr1-positive, and ALCAM-positive cells) increasing in number together with cancer-associated MSCs, and the contents of the cells mentioned above were analyzed by flow cytometry using FACScan to calculate the percentage and number of MSCs per culture (FIG. 8). […] PD-L1 is expressed in MSC and presumably influences the induction of MSCs.
The antibody clone (#6-55, #7, #10, #13, or […]) was evaluated for its activity by the same testing method as in Example 13. #6-55 was set as a positive control for activity. […] Mouse bone marrow cells were supplemented with FSTL1 and the predetermined concentration of each antibody and cultured for 8 days. 5×10^4 cells/well were separated from each culture system and evaluated for the ability to differentiate into adipocytes using an adipocyte differentiation reagent included in “Mesenchymal Stem Cell Functional Identification Kit (R&D Systems, Inc., Cat. No. SC010)”. For the evaluation method, the cells were supplemented with the adipocyte differentiation reagent and cultured for 8 days. Then, adipocytes per culture system were counted under a microscope for evaluation. In the graph, none is depicted in the leftmost bar, and the control antibody is depicted in the second bar from the left followed by the anti-FSLT1 antibody clones. […]
Mouse bone marrow cells (bone marrow cells prepared in the same way as in Example 4) were supplemented with 20 ng/mL (final concentration) of FSTL1 and 20.0, 10.0, 5.0, or 2.5 μg/ml (final concentration) of the rat anti-FSTL1 antibody or #6-55. […] The cells were cultured for 8 days, and the inhibitory activity of each antibody against the induction of MSCs, cancer-associated MSCs, and M-MDSCs by FSTL1 was evaluated in the same way as in Example 13 (FIG. 10A). […]

FSTL1 = target: T1, FSTL1 (Homo sapiens, UniProt Q12841); experiment: Inhibition of MSC induction by FSTL1 in mouse bone marrow cells, ALCAM- and PDGFRA-positive cells (Example 4); assay type: cell-based; parameters: purchased R&D Systems, Inc. 1694-FN-050; details: FSTL1 50 ng/mL, antibody 10 μg/mL, 11 days, vs control anti-DNP antibody
T1 sequence (Q12841 21-308): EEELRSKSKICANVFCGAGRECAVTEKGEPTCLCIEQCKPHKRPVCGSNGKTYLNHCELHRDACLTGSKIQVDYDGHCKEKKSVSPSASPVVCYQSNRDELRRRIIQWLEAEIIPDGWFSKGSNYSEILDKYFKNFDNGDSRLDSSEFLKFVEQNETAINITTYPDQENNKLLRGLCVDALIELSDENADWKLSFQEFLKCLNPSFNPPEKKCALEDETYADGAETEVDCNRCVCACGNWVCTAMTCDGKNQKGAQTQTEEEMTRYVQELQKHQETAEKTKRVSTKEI
Description: It is known that when bone marrow cells are stimulated with FSTL1, mesenchymal stem cells (MSCs) having pluripotency or self-proliferative capacity grow (Cancer Research 73: 6185, 2013). Thus, 2×10^7 cells/well of bone marrow cells collected from the thigh bone of a C57BL/6 mouse were suspended in 3 mL/well of RPMI1640 (GIBCO/Thermo Fisher Scientific Inc., Cat. No. C11875500BT) medium containing 2% fetal bovine serum, supplemented with 50 ng/mL (final concentration) of FSTL1 (R&D Systems, Inc. Cat#1694-FN-050) and 10 μg/mL of the anti-FSTL1 antibody (#5-2, #5-3, #5-8, #5-10, #5-43, #6-55, or #7-34) or its isotype mouse IgG (anti-DNP antibody) as a control antibody “Control”, and cultured under stimulation (6-well plate). 11 days thereafter, the number of cells was counted while the cells were stained with a PE-labeled anti-ALCAM antibody (eBioscience, Cat. No. 12-1661-82) and a PE-labeled anti-PDGFRA antibody (eBioscience, Cat#12-1401-81) in order to examine the expression of MSC markers, and the contents of ALCAM-positive cells and PDGFR-positive cells were analyzed by flow cytometry using FACScan (Becton, Dickinson and Company, Code. BECTON-DICKINSON-FACSCAN) to calculate the number of each positive cell per culture.

[2] = Example 14, FIG. 9A/39A, #6-55 as positive control

B1: #13: chicken-mouse chimeric anti-FSTL1 antibody clone; variable regions SEQ ID NO: 815 (light), 817 (heavy) (antibody, V domains shown)
VH: AVTLDESGGGLQTPGGGLSLVCKASGFTFSSVTMQWVRQAPGKGLEWVASICSGSSTYYGPAVKGRATISRDNGQNTVRLQLNNLRAEDTATYYCAKIVGRGRWSCTSAAYNIDAWGHGTEVIVSS
VL: ASTQPSSVSANPGETVKITCSGGGNNYGWYQQKSPGSAPVTVIYNNNNRPSNIPSRFSGSKSGSTNTLTITGVQAEDEAVYYCGSYDSSSDSGIFGAGTTLTVL
modifications: mouse constant regions
inhibitory activity against the induction of MSCs, cancer-associated MSCs, and M-MDSCs by FSTL1 [1, 2]: inhibitory activity equivalent to or higher than that of the positive control (#6-55); also recorded: inhibitory activity equivalent to or higher than that of the positive control (16-55)

B2: #33: chicken-mouse chimeric anti-FSTL1 antibody clone; variable regions SEQ ID NO: 823 (light), 825 (heavy) (antibody, V domains shown)
VH: AVTLDESGGGLQTPGGGLSLVCKASGFTFSSFNMNWVRQAPGKGLEYVAEISGTGSSTYYGSAVKGRATISRDNGQSTVRLQLNNLRAEDTATYFCARGDGAYSIDAWGHGTEVIVSS
VL: ASTQPSSVSANPGETVEITCSGDSSYYGWFQQKSPGSAPVTVIYDNTNRPSDIPSRFSGSKSGSTATLTITGVRAEDEAVYYCGGYDSSTYDGIFGAGTTLTVL
modifications: mouse constant regions
inhibitory activity against the induction of MSCs, cancer-associated MSCs, and M-MDSCs by FSTL1 [1, 2]: inhibitory activity equivalent to or higher than that of the positive control (#6-55); also recorded: inhibitory activity equivalent to or higher than that of the positive control (16-55)

B3: #6-55: chicken-mouse chimeric anti-FSTL1 antibody clone; variable regions SEQ ID NO: 783 (light), 785 (heavy) (antibody, V domains shown)
VH: AVTLDESGGGLQTPGGALSLVCKGSGFTFTSVTMQWVRQAPGKGLEWVASVCSGSSTYYAPAVKGRATISRDNGQSTVRLQLSNLRPEDTGTYYCAKIAGRARWSCTSAAYNIDAWGHGTEVIVSS
VL: ASTQPSSVSAIPGETVKITCSGGGNNYGWYQQRSPGSAPVTVIYYNDNRPSNIPSRFSGSTSGSTSTLTITGVQADDEAIYYCGSWDSNTDSGIFGAGTTLTVL
modifications: mouse constant regions
inhibitory activity against the expansion of ALCAM-positive cells and PDGFRA-positive cells by FSTL1 (FSTL1): slightly strong tendency of inhibitory activity | dose dependence ([1]; Example 15, FIG. 10A/40A, 2.5-20.0 μg/ml): No dose-dependent effect was confirmed; also recorded: dose dependence was not confirmed | inhibitory activity against the induction of MSCs, cancer-associated MSCs, and M-MDSCs by FSTL1 ([1]; Example 15, FIG. 10A/40A, FSTL1 20 ng/mL, antibody 20.0, 10.0, 5.0, 2.5 μg/ml, 8 days): slightly superior; also recorded: at the same level

B4: #7-34: chicken-mouse chimeric anti-FSTL1 antibody clone; variable regions SEQ ID NO: 787 (light), 789 (heavy) (antibody, V domains shown)
VH: AVTLDESGGGLQTPGGGLSLVCKASGFTFSSVTMQWVRQAPGKGLEWVASICSGSSTYYGPAVKGRATISRDNGQNTVRLQLNNLRAEDTATYYCAKIVGRGRWSCTSAAYNIDAWGHGTEVIVSS
VL: ASTQPSSVSANPGETVKITCSGGGNNYGWYQQKSPGSAPVTVIYYNNNRPSNIPSRFSGSTSGSTSTLTITGVQAEDEAVYYCGSYEGSTDSGIFGAGTTLTVL
modifications: mouse constant regions
inhibitory activity against the expansion of ALCAM-positive cells and PDGFRA-positive cells by FSTL1 (FSTL1): slightly strong tendency of inhibitory activity

B5: #5-43: chicken-mouse chimeric anti-FSTL1 antibody clone; variable regions SEQ ID NO: 779 (light), 781 (heavy) (antibody, V domains shown)
VH: AVTLDESGGGLQTPGGGLSLVCKGSGFTFSSFNMFWVRQAPGKGLEWVAGIGKDGGTGYGAAVDGRATISKDSGQSTLRLQLNNLRAEDTGTYYCAKAAGGCSYDWCGAYTGDIDTWGHGTEVIVSS
VL: ASTQPSSVSANPGEAVKITCSGGSGSYYGWYQQKSPGSAPVTVIYNNNQRPSDIPSRFSGSKSGSTATLTITGVQAEDEAVYFCGGYDSSTGHGGIFGAGTTLTVL
modifications: mouse constant regions
inhibitory activity against the expansion of ALCAM-positive cells and PDGFRA-positive cells by FSTL1 (FSTL1): slightly strong tendency of inhibitory activity
